Columns and labels:
[1] = molecular target: T1, Soy Kunitz Inhibitor (Trypsin Inhibitor from soybean), P01070
T1 chain: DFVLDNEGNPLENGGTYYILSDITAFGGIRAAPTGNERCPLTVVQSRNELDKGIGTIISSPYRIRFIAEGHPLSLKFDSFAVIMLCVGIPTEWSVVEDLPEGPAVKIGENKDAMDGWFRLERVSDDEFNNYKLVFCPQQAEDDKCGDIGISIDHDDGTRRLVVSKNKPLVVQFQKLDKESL

[2] = molecular target: Soybean agglutinin (SBA), P05046
[3] = molecular target: T2, Soy Bowman-Birk Inhibitor, P01055
T2 chain: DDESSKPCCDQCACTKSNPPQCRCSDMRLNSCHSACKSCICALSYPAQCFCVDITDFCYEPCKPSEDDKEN

Sequence of Soybean agglutinin (SBA), P05046 (P05046 33-285): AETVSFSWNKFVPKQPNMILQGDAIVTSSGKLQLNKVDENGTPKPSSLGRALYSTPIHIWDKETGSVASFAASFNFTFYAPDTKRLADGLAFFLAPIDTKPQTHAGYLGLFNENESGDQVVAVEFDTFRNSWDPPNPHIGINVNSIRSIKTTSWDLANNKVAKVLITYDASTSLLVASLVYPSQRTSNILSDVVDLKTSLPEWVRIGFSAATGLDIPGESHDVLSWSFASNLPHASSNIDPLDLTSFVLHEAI

B1: Protease derived from Nocardiopsis sp. NRRL 18262 (an acid-stable protease) (protein)
chain: ADIIGGLAYTMGGRCSVGFAATNAAGQPGFVTAGHCGRVGTQVTIGNGRGVFEQSVFPGNDAAFVRGTSNFTLTNLVSRYNTGGYATVAGHNQAPIGSSVCRSGSTTGWHCGTIQARGQSVSYPEGTVTNMTRTTVCAEPGDSGGSYISGTQAQGVTSGGSGNCRTGGTTFYQEVTPMVNSWGVRLRT
**Q.** Which results are given for B1?
**A.** % of anti-nutritional factor degraded (SDS-PAGE band disappearance, 2 hours, 37° C., pH 6.5) [1]: 100%; % of anti-nutritional factor degraded (SDS-PAGE band disappearance, 2 hours, 37° C., pH 6.5) [2]: 75%; % of anti-nutritional factor degraded (SDS-PAGE band disappearance, 2 hours, 37° C., pH 6.5) [3]: 25%

Reference: US20230189844
